Reference: article PMC7573561

Target: Actin (coated on BLI biosensors)
Experiment: BLI; Octet RED, 25 C; APS (aminopropylsilane) biosensors coated with 10 ug/mL actin; rPDCP-1 in PBS pH 7.4 with 0.05% Tween 20 and 0.1% BSA; 300 s association, 120 s dissociation

Kd: 783 nM
Substance: Recombinant PDZ-domain-containing-protein-1 (rPDCP-1) (natural protein)
